Test results taken from US20240216513A1, “FATTY ACID-BIFUNCTIONAL DEGRADER CONJUGATES AND THEIR METHODS OF USE” (Novartis AG, priority 2021, published 2024).

Experiments:
[1] = In vivo pharmacokinetic study in mice (i.v. or s.c.), FAC and payload in blood; design: species or system mouse; conditions: male, C57/B16, mouse, in vivo, sc, 40 umol/kg
Method: (§1) Pharmacokinetic studies were conducted in male C57/B16 mice; male Sprague-Dawley rats; male Beagle dogs and male Cynomolgus monkeys. 3 animals per group were used for each study performed. All studies were performed in accordance with local animal welfare regulations.
(§2) […] Serial 30 µL blood samples were collected via venipuncture of the tail vein in mouse, and via the cannulated jugular vein in rats at defined timepoints to 216 hours (into EDTA coated tubes).
(§3) Each blood sample was precipitated with acetonitrile containing internal standard; samples were mixed and centrifuged (20 minutes 4000 RPM at 4° C.). Supernatant was transferred to a microwell plate and evaporated under nitrogen at 60° C. Residue was resuspended in acetonitrile/water (7:3 v/v); plate sealed and transferred to an ultrasonic bath for 3 minutes, prior to analysis. Quantification was performed by LC-MS/MS (SciexAP16500 Q-trap, Shimadzu Nexera X2) using a Phenomenex Polar RP analytical column (2.5 μm particle size; 50×2 mm). The mobile phase consisted of solvent A (0.1% formic acid in water) and solvent B (0.1% formic acid in acetonitrile). The fatty acid conjugate and API were detected using multiple reaction monitoring.
(§4) Data analysis and calculation of non-compartmental pharmacokinetic parameters was
(§5) performed using an in-house analysis. Following intravenous administration whole blood clearance was calculated by the dose administered divided by AUC0-inf. Volume of distribution at steady state was calculated as MRT*CL, where MRT is the mean residence time, calculated by AUMC0-inf/AUC0-inf. The half-life (t1/2) of the terminal elimination phase was calculated by 0.693/λ. For both intravenous and subcutaneous administration, the systemic exposures were determined by calculating the area under the blood concentration time curve (AUC) from time zero to the last observed quantifiable concentration (AUClast) by using the linear trapezoidal method and normalised to dose. Extrapolated AUC (AUC0-inf) is calculated by addition of AUClast and AUCtlast-inf; where AUCtlast-inf is calculated based on Clast/λ. The slope of the terminal elimination phase was estimated by linear regression of the terminal data points (minimum 3 points) from a natural log concentration versus time plot of the data. Bioavailability was calculated as the dose normalized ratio of […] AUCinf to intravenous AUCinf (100*[SC AUCinf/SC dose]/[IV AUCinf/IV dose]). Following subcutaneous administration Cmax is calculated as the average maximum observed peak concentration and Tmax is the time associated with the determined Cmax.
(§6) For PK experiments, non-tumor bearing mice or rats were treated once (10 mL/kg) with a compound either i.v. or s.c. Serial blood samplings from the tail vein (5-20 μl) were collected during the course of the experiment. For PK/PD experiments in tumor-bearing mice, compound was administered once (10 mL/kg) either i.v. or s.c. Animals were randomized into groups of n=3 and tissue samples were collected at several time points. At the times indicated, animals were anaesthetized by exposure to 2-3% v/v isoflurane in medical oxygen. They were sacrificed without recovering from anesthetic after blood sampling into commercially prepared EDTA coated tubes (Milian, cat #TOM-14C) in order to extract plasma. The tissues were excised, weighted and rapidly frozen in liquid nitrogen. Later, tumors were cryogenic dry pulverized with the CryoPrep™ system (model CP-02, Covaris). For efficacy experiments in ectopic tumor-bearing mice, animals were randomized into groups of n=6 for a mean tumor size of 100 mm^3 and compound was administered either i.v. q3w or s.c. q2w. When implanted in brain, animals were randomized into groups of n=4 for a mean bioluminescence of 1.0-2.0E+06 [p/s]/[ρW/cm^2] and compound was administered i.v. qw. Tumor response were reported with the measures of tumor volumes or bioluminescence from the treatment start. […]

BTK = target: T1, BTK (Homo sapiens, UniProt Q06187); assay: PK/PD in TMD8 tumor-bearing mice: BTK levels in tumor by Meso Scale Discovery; format: in vivo, mouse; conditions: I.v.; 40 umol/kg
T1 construct: endogenous in cells; host or cells: TMD8 tumour xenografts in SCID/BEIGE mice
T1 sequence (Q06187 whole entry): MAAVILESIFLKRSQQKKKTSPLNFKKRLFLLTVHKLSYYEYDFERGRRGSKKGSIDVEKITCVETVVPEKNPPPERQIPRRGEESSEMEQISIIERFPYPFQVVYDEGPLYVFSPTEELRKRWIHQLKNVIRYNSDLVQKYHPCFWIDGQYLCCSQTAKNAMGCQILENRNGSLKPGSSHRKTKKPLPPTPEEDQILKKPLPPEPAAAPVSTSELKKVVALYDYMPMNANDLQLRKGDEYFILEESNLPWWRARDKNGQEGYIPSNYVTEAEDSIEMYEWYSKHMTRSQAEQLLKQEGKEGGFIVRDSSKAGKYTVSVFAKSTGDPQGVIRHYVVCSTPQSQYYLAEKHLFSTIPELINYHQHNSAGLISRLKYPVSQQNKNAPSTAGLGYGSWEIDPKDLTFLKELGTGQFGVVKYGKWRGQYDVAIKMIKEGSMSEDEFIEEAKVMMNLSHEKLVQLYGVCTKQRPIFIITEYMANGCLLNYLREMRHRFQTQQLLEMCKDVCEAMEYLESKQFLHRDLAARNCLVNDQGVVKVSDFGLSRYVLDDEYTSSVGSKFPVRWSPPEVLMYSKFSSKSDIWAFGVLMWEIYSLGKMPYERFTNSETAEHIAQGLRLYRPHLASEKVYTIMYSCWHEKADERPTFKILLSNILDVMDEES
Method: (§7) All animal experiments were performed according to procedures covered by permit number BS-1974, BS-1975 and BS-2904 issued by the Kantonales Veterinäramt Basel-Stadt and strictly adhered to the Eidgenössisches Tierschutzgesetz and the Eidgenössische Tierschutzverordnung. Female Sprague Dawley rat were obtained from Charles Rivers (Germany), female Balb/c mice from Charles Rivers (Italy) and female SCID/BEIGE (C.B-Igh-1b/GbmsTac-Prkdcscid-Lystbg N7) mice from Taconic. All the animals were housed in a pathogen-controlled environment with access to food and water ad libitum and they were identified with transponders.
(§8) Subcutaneous TMD8 tumors were induced by injecting tumor cells expanded in vitro in the right flank of SCID/BEIGE mice. As soon as the injection was finished, antagonization (naloxone, flumazenil and atipamezole injected s.c.) was injected and mice are put on a warming pad for recovery and carefully checked during that time.
(§9) For PK experiments, non-tumor bearing mice or rats were treated once (10 mL/kg) with a compound either i.v. or s.c. Serial blood samplings from the tail vein (5-20 μl) were collected during the course of the experiment. For PK/PD experiments in tumor-bearing mice, compound was administered once (10 mL/kg) either i.v. or s.c. Animals were randomized into groups of n=3 and tissue samples were collected at several time points. At the times indicated, animals were anaesthetized by exposure to 2-3% v/v isoflurane in medical oxygen. They were sacrificed without recovering from anesthetic after blood sampling into commercially prepared EDTA coated tubes (Milian, cat #TOM-14C) in order to extract plasma. The tissues were excised, weighted and rapidly frozen in liquid nitrogen. Later, tumors were cryogenic dry pulverized with the CryoPrep™ system (model CP-02, Covaris). For efficacy experiments in ectopic tumor-bearing mice, animals were randomized into groups of n=6 for a mean tumor size of 100 mm^3 and compound was administered either i.v. q3w or s.c. q2w. When implanted in brain, animals were randomized into groups of n=4 for a mean bioluminescence of 1.0-2.0E+06 [p/s]/[ρW/cm^2] and compound was administered i.v. qw. Tumor response were reported with the measures of tumor volumes or bioluminescence from the treatment start. Concentrations of compound in blood and tissues were determined simultaneously by UPLC/MS-MS. BTK and IL-10 levels in tumor were determined by Meso Scale Discovery (MSD).

TMD8 tumors = assay: Efficacy in ectopic (subcutaneous) TMD8 tumor-bearing SCID/BEIGE mice, tumor volume; format: in vivo, mouse; conditions: I.v.
Method: as §7, §8, §9

[2] = BTK FAC plasma stability assay, PBS buffer arm; format: physicochemical
Summary of the method: (§10)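 Compound from a 500 µM acetonitrile:water working solution was spiked into K3-EDTA plasma or Dulbecco's PBS and incubated with shaking at 38 °C. Samples taken at 0, 2, 6 and 24 h were precipitated with cold acetonitrile containing glyburide internal standard. Semi-quantitative LC-MS/MS used analyte:internal standard peak area ratios.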

[3] = BTK FAC plasma stability assay, mouse plasma; format: in vitro ADME
Summary of the method: as §10

[4] = BTK FAC plasma stability assay, rat plasma; format: in vitro ADME
Summary of the method: as §10

[5] = BTK FAC plasma stability assay, dog plasma; format: in vitro ADME
[6] = In vivo pharmacokinetic study in Beagle dogs (i.v. or s.c.), FAC and payload in blood; design: species or system dog; conditions: analyte payload after FAC i.v. dose 1 umol/kg
Method: as §1
(§11) Between 1 and 10 µM/kg FAC was administered either intravenously or subcutaneously as a solution in 10 mM PBS with NaOH (dose volume 0.4 mL/kg in dog and monkey s.c. and 0.2 mL/kg i.v. in monkey). Serial 100 µL blood samples were collected via venipuncture of the cephalic vein at defined timepoints to 336 hours (into EDTA coated tubes).
as §3, §4, §5

[7] = In vivo pharmacokinetic study in Cynomolgus monkeys (i.v. or s.c.), FAC and payload in blood; design: species or system cynomolgus monkey; conditions: analyte FAC, FAC i.v. dose 1 umol/kg
Method: as §1, §11, §3, §4, §5

[8] = In vivo pharmacokinetic study in rats (i.v. or s.c.), FAC and payload in blood; design: species or system rat
Method: as §1, §2, §3, §4, §5, §6

BTK C481S = target: T2, BTK C481S (Homo sapiens, UniProt Q06187, C481S); assay: PD screen in TMD8 BTK C481S mutant tumor-bearing mice, BTK levels and compound concentrations in blood and tumor; format: in vivo, mouse; conditions: 25 umol/kg
T2 construct: endogenous in cells; host or cells: TMD8 BTK C481S mutant tumour xenografts in mice
T2 sequence (Q06187 whole entry C481S): as the sequence (Q06187 whole entry) above, with C481S counted along it
Summary of the method: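 Single compound injection in mice bearing TMD8 BTK C481S tumors, groups of 2, with blood and tumor sampled at day 0, 4, 7 and sometimes 10. Compound levels measured by UPLC/MS-MS and BTK levels by Meso Scale Discovery.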

## CCCCCCCCCCC[C@@](CCCCCCCCCCC(=O)O)(C(=O)O)C(=O)NCCOCCOCCOCCOCCOCCOCCOCCOCCOCCOCCOCCOCCC(=O)NCC(=O)OC(C)(C)c1ccc(C(=O)Nc2cc(F)cc(-c3ncnc4[nH]c(-c5ccc(CN6CCC(OC7CCN(CCn8cccc(CN9CCC(=O)NC9=O)c8=O)CC7)CC6)cc5)cc34)c2C)c(F)c1 (single isomer, unassigned) [Compound B2]
[1]
  AUC: 1860 µM·h
  Cmax: 60 µM
BTK
  Duration of BTK degradation in mouse ≥90%: 10 days
TMD8 tumors
  Dosing to achieve sustained ~90% regression: 60 umol/kg q3w

## CCCCCCCCCCC[C@](CCCCCCCCCCC(=O)O)(C(=O)O)C(=O)NCCOCCOCCOCCOCCOCCOCCOCCOCCOCCOCCOCCOCCC(=O)NCC(=O)OC(C)(C)c1ccc(C(=O)Nc2cc(F)cc(-c3ncnc4[nH]c(-c5ccc(CN6CCC(OC7CCN(CCn8cccc(CN9CCC(=O)NC9=O)c8=O)CC7)CC6)cc5)cc34)c2C)c(F)c1 (single isomer, unassigned) [Compound B3]
[1]
  AUC: 3850 µM·h
  Cmax: 68 µM
BTK
  Duration of BTK degradation in mouse ≥90%: 14 days
TMD8 tumors
  Dosing to achieve sustained ~90% regression: 20 umol/kg q3w

## CCCCCCCCCCCN(C(=O)CCCCCCCCCC(=O)O)[C@@H](CCC(=O)NCCOCCOCCOCCOCCOCCOCCOCCOCCOCCOCCOCCOCCC(=O)NCC(=O)OC(C)(C)c1ccc(C(=O)Nc2cc(F)cc(-c3ncnc4[nH]c(-c5ccc(CCN6CCC7(CC6)CCN(C(=O)c6ccc(OC)c(N8CCC(=O)NC8=O)c6)CC7)cc5)cc34)c2C)c(F)c1)C(=O)O [Example A2, (S)-50-Carboxy-2-(4-((3-(6-(4-(2-(9-(3-(2,4-dioxotetrahydropyrimidin-1(2H)-yl)-4-methoxybenzoyl)-3,9-diazaspiro[5.5]undecan-3-yl)ethyl)phenyl)-7H-pyrrolo[2,3-d]pyrimidin-4-yl)-5-fluoro-2-methylphenyl)carbamoyl)-3-fluorophenyl)-2-methyl-4,7,47,52-tetraoxo-51-undecyl-3,10,13,16,19,22,25,28,31,34,37,40,43-tridecaoxa-6,46,51-triazadohexacontan-62-oic acid]
[2]; 24 h
  % Release of degrader after 24 h PBS: 0.8%
[2]; incubation to 24 h
  Plasma stability (h) PBS: >48 h
[3]; 24 h
  % Release of degrader after 24 h mouse: 3.4%
[3]; incubation to 24 h
  Plasma stability (h) mouse: 12.3 h
[4]; 24 h
  % Release of degrader after 24 h rat: 8.9%
[4]; incubation to 24 h
  Plasma stability (h) rat: 18.1 h
[5]
  Plasma stability (h) dog: >48 h
[5]; 24 h
  % Release of degrader after 24 h dog: 7.3%
[6]
  Payload C0-uM dog: 0.2 µM
[7]; read-out: FAC C0-uM cyno
  C0: 56.6 µM
[7]; male, cynomolgus monkey, whole blood, iv, read-out: FAC AUC-uM.h cyno
  AUC: 590 µM·h

## COc1ccc(C(=O)N2CCC3(CCN(CCc4ccc(-c5cc6c(-c7cc(F)cc(NC(=O)c8ccc(C(C)(C)OC(=O)CNC(=O)CCOCCOCCOCCOCCOCCOCCOCCOCCOCCOCCOCCOCCNC(=O)C(CCCCCCCCCCCCCCP(=O)(O)O)(CCCCCCCCCCCCCCP(=O)(O)O)C(=O)O)cc8F)c7C)ncnc6[nH]5)cc4)CC3)CC2)cc1N1CCC(=O)NC1=O [Example A28, 2-(4-((3-(6-(4-(2-(9-(3-(2,4-dioxotetrahydropyrimidin-1(2H)-yl)-4-methoxybenzoyl)-3,9-diazaspiro[5.5]undecan-3-yl)ethyl)phenyl)-7H-pyrrolo[2,3-d]pyrimidin-4-yl)-5-fluoro-2-methylphenyl)carbamoyl)-3-fluorophenyl)-2-methyl-4,7,47-trioxo-48,48-bis(14-phosphonotetradecyl)-3,10,13,16,19,22,25,28,31,34,37,40,43-tridecaoxa-6,46-diazanonatetracontan-49-oic acid]
[8]; analyte FAC, FAC i.v. dose 10 umol/kg, read-out: FAC C0-uM rat
  C0: 57 µM
[8]; analyte payload after FAC i.v. dose 10 umol/kg
  Payload C0-uM Rat: 0.21 µM
[8]; male, Sprague-Dawley, rat, in vivo, iv, analyte FAC, FAC i.v. dose 10 umol/kg, read-out: FAC AUC-uM.h rat
  AUC: 704 µM·h
BTK C481S; i.v.
  Duration of BTK degradation in mouse ≥90%: 10 days
BTK C481S; s.c.
  Duration of BTK degradation in mouse ≥90%: 10 days
